Laboratory results reported in the supplement of paper PMC12042874.
± gives the uncertainty stated by the source.

Experiment: amyloid nucleation score (Sup35N fusion, yeast selection) (log enrichment); library NNK1; higher = more nucleation; inactive = no reads after selection
Method in brief: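 Growth for 7 days at 30°C on medium lacking adenine and uracil followed a 24-hour induction with 100 μM copper sulfate of psi-negative yeast expressing peptides of 20 random codons fused to Sup35N. Input and output plasmid inserts were sequenced with Illumina, and sequences with under 100 input reads were excluded. Nucleation score is the DiMSum log enrichment of output over input reads, centred on the mode score of non-aggregating sequences.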

Q: With PFLQQNKIFNGLYEMTNWVA as the substance, how does the amyloid nucleation score read?
A: inactive

Q: Which amyloid nucleation score does the source give for PFLYIDSF here?
A: -1.2 ± 1.9

Q: With PFNKKFRYVMPRLQRTHVFM as the substance, how does the amyloid nucleation score read?
A: inactive

Q: Which amyloid nucleation score does the source give for PFTYYFEVQLILRKT here?
A: 0.773 ± 0.79

Q: With PFVLYWGKLSYYDAD as the substance, how does the amyloid nucleation score read?
A: 0.707 ± 0.55

Q: Which amyloid nucleation score does the source give for PFYLEARKVDEVMSLTYIV here?
A: -0.693 ± 0.67

Q: Which amyloid nucleation score does the source give for PGLDFLGLLHQLISVFAIRL here?
A: 0.111 ± 0.48

Q: Which amyloid nucleation score does the source give for PGRSSRLR here?
A: -0.071 ± 1.1

Q: With PGSCFVMCCDLDKRKGSADE as the substance, how does the amyloid nucleation score read?
A: -0.559 ± 0.62

Q: For PGVSDPYLDECKVTFKI, which amyloid nucleation score is on record?
A: 0.715 ± 0.31

Q: Which amyloid nucleation score does the source give for PGYQTSWWYMLKCKTSSLNY here?
A: 0.468 ± 0.47

Q: For PIFKMDCGDMVCT, which amyloid nucleation score is on record?
A: 0.121 ± 0.22

Q: Which amyloid nucleation score does the source give for PIHGISFFDAYNL here?
A: -0.128 ± 1.4

Q: With PIHYEPSKAVYYTQFRGGMG as the substance, how does the amyloid nucleation score read?
A: -0.184 ± 0.42

Q: With PIKVMIFVCNGFRKWHLMQH as the substance, how does the amyloid nucleation score read?
A: 0.268 ± 1.1

Q: Which amyloid nucleation score does the source give for PKMPGMVYDTPN here?
A: -1.49 ± 2.4

Q: With PKSIGAFLTCHISRHVYYVI as the substance, how does the amyloid nucleation score read?
A: 1.08 ± 0.66

Q: For PLCHWKA, which amyloid nucleation score is on record?
A: -0.325 ± 0.53

Q: Which amyloid nucleation score does the source give for PLCLNRVMISAMGVRVR here?
A: -0.285 ± 0.73

Q: With PLNHNSY as the substance, how does the amyloid nucleation score read?
A: 1.47 ± 0.51

Q: With PLNSRTCGPFARSSIWDWDT as the substance, how does the amyloid nucleation score read?
A: 0.937 ± 0.9

Q: For PLTLFYLLNTHAVEFSKVNC, which amyloid nucleation score is on record?
A: -0.674 ± 0.47

Q: With PLVFCIITGPCV as the substance, how does the amyloid nucleation score read?
A: -0.468 ± 0.55

Q: For PLYGC, which amyloid nucleation score is on record?
A: 0.634 ± 0.72

Q: Which amyloid nucleation score does the source give for PLYKAVLTDK here?
A: inactive

Q: Which amyloid nucleation score does the source give for PMTTWYSVFCAEFL here?
A: 0.688 ± 0.32

Q: Which amyloid nucleation score does the source give for PNAVCGQWFEDQL here?
A: -0.269 ± 0.94

Q: For PNDPGKLSHGVSVVLYFDEL, which amyloid nucleation score is on record?
A: 1.5 ± 0.39

Q: For PNIRHYVYNHN, which amyloid nucleation score is on record?
A: inactive

Q: Which amyloid nucleation score does the source give for PNYHGVRGM here?
A: -0.086 ± 1.2

Q: With PPFDSDKA as the substance, how does the amyloid nucleation score read?
A: 0.335 ± 0.77

Q: With PQRRSHREKA as the substance, how does the amyloid nucleation score read?
A: -0.557 ± 0.62

Q: With PQVGRAYNGGAGFLKYSTWD as the substance, how does the amyloid nucleation score read?
A: 0.229 ± 0.51

Q: With PRCSMRLLGYTPIYDGKS as the substance, how does the amyloid nucleation score read?
A: -0.781 ± 1.1

Q: With PRDASWRTFVAKA as the substance, how does the amyloid nucleation score read?
A: -0.026 ± 1.7

Q: With PRELEKFTLQKSGLHPWISL as the substance, how does the amyloid nucleation score read?
A: -0.686 ± 1.4

Q: Which amyloid nucleation score does the source give for PRLYGISRKSYVLSIFDVVS here?
A: 0.245 ± 0.21

Q: Which amyloid nucleation score does the source give for PRNPMRSESILFCGNFVGRK here?
A: -0.759 ± 0.59

Q: For PRYNCYQQHEVALDFSSLRC, which amyloid nucleation score is on record?
A: -0.297 ± 0.54

Q: With PSFSDLSHALGSSLESWGYR as the substance, how does the amyloid nucleation score read?
A: 0.021 ± 0.8

Q: For PSNLRDWHSSQFNREEEDAY, which amyloid nucleation score is on record?
A: 0.467 ± 0.46

Q: For PSRATYCRGSMIHLIFDWIT, which amyloid nucleation score is on record?
A: 0.955 ± 0.54

Q: For PSRVKLKISKLL, which amyloid nucleation score is on record?
A: -0.647 ± 0.94

Q: For PSTPQSHKMMGYRFRDRTGW, which amyloid nucleation score is on record?
A: -1.03 ± 2.7

Q: Which amyloid nucleation score does the source give for PSTTLFWLVMRKHILQHTRR here?
A: -0.215 ± 0.28

Q: Which amyloid nucleation score does the source give for PTGNGKLFSGKYYPYDVRRS here?
A: -0.169 ± 0.29

Q: For PTGVMM, which amyloid nucleation score is on record?
A: -0.338 ± 0.51

Q: Which amyloid nucleation score does the source give for PTLVRECFEALSVSDYPVPG here?
A: -0.674 ± 1.7

Q: Which amyloid nucleation score does the source give for PTMLKNRGVLSQPHIIFSYR here?
A: -0.333 ± 0.34

Q: For PTVLTVLFNRPFRSCN, which amyloid nucleation score is on record?
A: -0.178 ± 0.61

Q: Which amyloid nucleation score does the source give for PTYIKLILTAHYLSEFRSNV here?
A: 1.02 ± 0.17

Q: Which amyloid nucleation score does the source give for PVAVVGILHPVFDRRPMRTV here?
A: -0.031 ± 0.89

Q: For PVFCPRV, which amyloid nucleation score is on record?
A: -1.55 ± 1.3

Q: For PVGNPLD, which amyloid nucleation score is on record?
A: -0.039 ± 0.18

Q: Which amyloid nucleation score does the source give for PVGRCDQRDTRIHWGNYKVE here?
A: inactive

Q: For PVLYNHCGVNLCPTLCLSNY, which amyloid nucleation score is on record?
A: 7.199 ± 0.053

Q: For PWCTGRLTGSNCKVYWITRS, which amyloid nucleation score is on record?
A: 0.515 ± 0.36

Q: With PWNLIISSYASYYTCKVLVS as the substance, how does the amyloid nucleation score read?
A: -0.563 ± 1.1

Q: Which amyloid nucleation score does the source give for PWSPTVIRPVFSEKGQFSQL here?
A: -0.538 ± 0.59

Q: Which amyloid nucleation score does the source give for PWSRDARPSADW here?
A: inactive

Q: With PWVTLVRAMCMFINVDLVSR as the substance, how does the amyloid nucleation score read?
A: 0.201 ± 0.72

Q: Which amyloid nucleation score does the source give for PYKLFHVVSCCRTQGDNVAK here?
A: -0.813 ± 0.49

Q: For PYKLGCICITNDFSQAPTVA, which amyloid nucleation score is on record?
A: -0.652 ± 0.92

Q: With PYLYRTLKKPLATHWSQFVK as the substance, how does the amyloid nucleation score read?
A: -1.22 ± 0.9

Q: Which amyloid nucleation score does the source give for PYSSDAKMCHLLETASNLLV here?
A: 0.577 ± 0.56

Q: Which amyloid nucleation score does the source give for PYVFLGVMDPRVYDMLLHAN here?
A: -0.085 ± 0.24

Q: Which amyloid nucleation score does the source give for PYVFPVRYYSTILWYAIYVR here?
A: 0.558 ± 0.28

Q: With PYWSDKWVFCRLKVVFIHVL as the substance, how does the amyloid nucleation score read?
A: -0.066 ± 0.69

Q: For PYWWS, which amyloid nucleation score is on record?
A: inactive

Q: For QCRILAHAGLLPSGTCPMWL, which amyloid nucleation score is on record?
A: -0.919 ± 0.92

Q: For QDCARH, which amyloid nucleation score is on record?
A: inactive

Q: Which amyloid nucleation score does the source give for QDFILDNCFPEGNLVCFKGV here?
A: 0.361 ± 0.58

Q: With QDTVFYMTDWGCGATKARDD as the substance, how does the amyloid nucleation score read?
A: 0.117 ± 0.94

Q: For QEDRGPLLHFRLNSYNVMTQ, which amyloid nucleation score is on record?
A: 0.471 ± 0.62

Q: Which amyloid nucleation score does the source give for QEGCQTLTSTSLVGGRKESS here?
A: 0.872 ± 0.75

Q: Which amyloid nucleation score does the source give for QELICMGSEYVFPNWTSFRA here?
A: -0.412 ± 0.49

Q: For QELWHMYSIYYVFRTGDHIY, which amyloid nucleation score is on record?
A: -0.163 ± 0.27

Q: Which amyloid nucleation score does the source give for QFDVVMMWQTE here?
A: -0.189 ± 0.3

Q: Which amyloid nucleation score does the source give for QFFTILCTGILLLNASTRLL here?
A: -0.777 ± 2.4

Q: With QFMIICHMMVNNW as the substance, how does the amyloid nucleation score read?
A: 7.003 ± 0.044

Q: With QFSCIPESTYSS as the substance, how does the amyloid nucleation score read?
A: 0.047 ± 0.41

Q: With QGCPRVWRSQSCCGVGGVIP as the substance, how does the amyloid nucleation score read?
A: inactive

Q: For QGINLVY, which amyloid nucleation score is on record?
A: -0.342 ± 0.38

Q: For QGLNNMHSGVVLKMLT, which amyloid nucleation score is on record?
A: 1.22 ± 0.54

Q: With QGSDAYHSMNMQLWVSRTLT as the substance, how does the amyloid nucleation score read?
A: 0.18 ± 0.36

Q: Which amyloid nucleation score does the source give for QGSPARMCVL here?
A: 0.629 ± 1

Q: Which amyloid nucleation score does the source give for QHCRA here?
A: 0.639 ± 0.88
